Here are results for 6 molecules from patent US20150344583A1 (Amgen, published 2015).

For this assay, the target named is T1, human BCMA (huBCMA) on cells (human, UniProt Q02223 1-184).
T1 chain: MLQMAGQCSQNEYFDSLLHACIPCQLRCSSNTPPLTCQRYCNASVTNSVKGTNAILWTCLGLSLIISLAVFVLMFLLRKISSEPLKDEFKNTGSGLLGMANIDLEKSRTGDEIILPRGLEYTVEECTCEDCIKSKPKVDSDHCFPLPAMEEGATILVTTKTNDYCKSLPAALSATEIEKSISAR
Briefly: cell-based or functional assay.

B1: 2A1-PEG4-Mal-DM4 (antibody, V domains shown)
VH: EVQLVESGGGLVKPGRSLRLSCTASGFTFGDYALSWFRQAPGKGLEWVGVSRSKAYGGTTDYAASVKGRFTISRDDSKSFAYLQMNSLKTEDTAVYYCCSSGYSSGWTPFDYWGQGTLVTVSS
VL: not shown
modifications: PEG4-Mal-DM4 conjugated, sites not stated
As to B1, the “IC50, CellTiter-Glo cell viability, H929 cells, 96 h” value (shortened to “IC50, CellTiter-Glo cell viability”) is 2.2 nM.

B2: 2A1-MCC-DM1 (antibody, V domains shown)
VH: EVQLVESGGGLVKPGRSLRLSCTASGFTFGDYALSWFRQAPGKGLEWVGVSRSKAYGGTTDYAASVKGRFTISRDDSKSFAYLQMNSLKTEDTAVYYCCSSGYSSGWTPFDYWGQGTLVTVSS
VL: not shown
modifications: MCC-DM1 conjugated, sites not stated
With B2, the “IC50 (nM DM1), cell viability, EW36” value turned out to be 30 nM DM1; the “IC50 (nM DM1), cell viability, H929” value is 0.6 nM DM1; the “IC50 (nM DM1), cell viability, MM1R” value was found to be 3.9 nM DM1; the “IC50 (nM DM1), cell viability, MM1S” value stood at 1 nM DM1. Also, the “IC50 (nM DM1), cell viability, RAMOS” value is 32 nM DM1; the “IC50 (nM DM1), cell viability, U266” value stood at 0.8 nM DM1; the “IC50, CellTiter-Glo cell viability” value is 2.4 nM.

B3: 2A1CV5-MCC-DM1 (Ab-1 ADC) (antibody, human IgG1, lambda, V domains shown)
VH: EVQLVESGGGLVKPGGSLRLSCAASGFTFGDYALSWFRQAPGKGLEWVGVSRSKAYGGTTDYAASVKGRFTISRDDSKSTAYLQMNSLKTEDTAVYYCASSGYSSGWTPFDYWGQGTLVTVSS
VL: not shown
modifications: MCC-DM1 conjugated, sites not stated
Regarding B3, the “IC50 in an H929 tumor cell growth inhibition assay (antibody concentration)” value was around 0.078 nM.

B4: 1E1-PEG4-Mal-DM4 (antibody, V domains shown)
VH: QVQLVQSGAEVKKPGASVKVSCKASGYTFTGHYIHWVRQAPGQGLEWMGWIYPNSGGTNYAQKFQGRVTMTRDTSISTAYMELSRLRSDDSAVYYCAREGMVTGDYYYYRMDVWGQGTTVIVSS
VL: QPVLTQPPSASASLGASVTLTCSLSSGYSNYKVDWYQQRPGKGPRFVMRVGIGGIVGSKGDGIPDRFSVLGSGLNRYLTIKNIQEEDESDFHCGADHGSGNNFVYVFGTGTKVTVLG
With B4, the “IC50, CellTiter-Glo cell viability” value is 0.68 nM.

B5: 1E1-MCC-DM1 (antibody, V domains shown)
VH: QVQLVQSGAEVKKPGASVKVSCKASGYTFTGHYIHWVRQAPGQGLEWMGWIYPNSGGTNYAQKFQGRVTMTRDTSISTAYMELSRLRSDDSAVYYCAREGMVTGDYYYYRMDVWGQGTTVIVSS
VL: QPVLTQPPSASASLGASVTLTCSLSSGYSNYKVDWYQQRPGKGPRFVMRVGIGGIVGSKGDGIPDRFSVLGSGLNRYLTIKNIQEEDESDFHCGADHGSGNNFVYVFGTGTKVTVLG
B5: the “IC50, CellTiter-Glo cell viability” value was 0.63 nM.

B6: 29C12-MCC-DM1 (antibody, V domains shown)
VH: EVQLLESGGALVQPGGSLRLSCAASGFTFSSYAMNWVRQAPGKGLEWVSAISVGGDTYYADSVKGRFTISRDNSKNTLYLQMNSLRAEDTAVYYCAKDQVTMVRGVWYYYGLDVWGQGTTVTVSS
VL: DIVMIQSPLSLPVTPGEPASISCRSSQSLLHSNGNNYLDWYLQKPGQSPHLLISLGSNRTSGVPDRFSGSGSGTDFTLKISRVEAEDVGVYYCMQALQPPRRFGQGTKLEIKR
As for B6, the “IC50, H929 cell growth (CellTiter-Glo, 96 h)” value came out at 0.39 nM.
